Experimental data taken from ChEMBL document CHEMBL4321859, “Unforeseen Possibilities To Investigate the Regulation of Polyamine Metabolism Revealed by Novel C-Methylated Spermine Derivatives” (J Med Chem, 2019).

Substrate: CC(CN)CNCCCCNCC(C)CN
Experiment: Substrate activity at recombinant human SMOX assessed as Km at 2000 to 6000 uM
Format: ADME

B1: Spermine oxidase (Homo sapiens) (protein)
chain: MQSCESSGDSADDPLSRGLRRRGQPRVVVIGAGLAGLAAAKALLEQGFTDVTVLEASSHIGGRVQSVKLGHATFELGATWIHGSHGNPIYHLAEANGLLEETTDGERSVGRISLYSKNGVACYLTNHGRRIPKDVVEEFSDLYNEVYNLTQEFFRHDKPVNAESQNSVGVFTREEVRNRIRNDPDDPEATKRLKLAMIQQYLKVESCESSSHSMDEVSLSAFGEWTEIPGAHHIIPSGFMRVVELLAEGIPAHVIQLGKPVRCIHWDQASARPRGPEIEPRGEGDHNHDTGEGGQGGEEPRGGRWDEDEQWSVVVECEDCELIPADHVIVTVSLGVLKRQYTSFFRPGLPTEKVAAIHRLGIGTTDKIFLEFEEPFWGPECNSLQFVWEDEAESHTLTYPPELWYRKICGFDVLYPPERYGHVLSGWICGEEALVMEKCDDEAVAEICTEMLRQFTGNPNIPKPRRILRSAWGSNPYFRGSYSYTQVGSSGADVEKLAKPLPYTESSKTAPMQVLFSGEATHRKYYSTTHGALLSGQREAARLIEMYRDLFQQGT
- Km: 121 µM
- Vmax: 0.124 µmol/min/mg
